Source: the domain aggregation screens of Martell et al. (2025)

Assay: soluble fraction after stress (log2 fold change); higher = more stays soluble; pooled small domains, quantitative proteomics
Conditions: stress: pH 4
Outline: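 After pH 4 stress, pooled custom libraries of small protein domains were quantified with high-throughput quantitative proteomics. Aggregation propensity is taken from the fold change in each domain's soluble amount following the acid stress. The scale is log2, where higher values mean more stayed soluble.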

| Sequence | soluble fraction (log2) |
| --- | --- |
| HMALLSNEDIMFNLEFNRDLAVASNDGVSRDEFLRNKYGISEEEYNMLRARYGDGLNAARIKEYVGQRD | -0.36 |
| HMELDLPLEELGLSTRVLHSLKEEGIESVRALLALNLKDLKNIPGIGERSLEEIKEALEKKGFTLK | -0.423 |
| HMLNAPFGFRIEDDTLIPIPEEAKVVRQIFRYYLQGMGFGKIAQELNGQDVPGKPWGKERIKYILSNEKYI | -0.0934 |
| HMDINMELGKNIRRLRKLNNLTQQSLANQMNRSKTLIALWEKGERDPSSIDLKRLSEIFNVRADDIIG | -0.00935 |
| HMSDDIPVHYRLDVNDAARALKLLTDNGFSAETAESGLNVYMTRLQSAEAARLLVENNIAVYGLTAV | -0.196 |
| HMDDGALQIRLGPQALQQRLDKLGYSLNKEDLDLVYQYFLHSADSKGAVYDQELRELMGEAGVE | -0.607 |
| HMVKNLRKLREELGLTQQRLAELTGISKSRIYSYESLDREPDIAGLITLADFFSVSIDYLVGK | -1.01 |
| HMPELSNNLDRDKVALKNFNESLKDGLTPAEAYANHLTNVSKAAQEAARQSNGLPVDIDKYHNSQLAASMA | ≥ 0.43 |
| HMWWTPIILRDALFGVQRFEDFQKNLDVSRATLSSRLTRLVDEGLMEKVEYQQHPVRHEYVLTEKGR | 0.194 |
| HMQIKEVDYGTFISMTEDGEIGRVEIQQQENTILFTDEDETAVYKTAMVEDDQLTQRLYDAGISFYGEE | -0.784 |
| HMTPFLVRVDISDLNIRTGAGTNYSRTGQYTGKGIFTILEVKSGQGSDAGWGRLKSGAGWISLDYTTR | 0.275 |
| HMAQLTPREREVLVLIAEGKSNKEIADQLNIGVRTIETHRERIMRRLNIHSVAGLTKYAIANGLVTL | 0.0239 |
| HMGVGVTAPLAGNIFKIVKQPGDVVASGDVVLILEAMKMETEIRAAAGGTVKQVLVREGDAVDAGHTLMTL | -1.59 |
| HMERYFVLVIYDIVDNKKRLKLSKYLLGYGIRVQKSAFEMMITKEKYNKLIKELPTYIEEGEDSIRLY | -0.292 |
| HMTSESWAEKSRSLAAAGLIVMGRDAQLKIEGLTNLDPLIEAATASSTRLLTGQTIDELLTIVP | -0.627 |
| HMSLIDYLNELMNEKNITVAQVAKNSGIGEYVYKIFNGERNAKRDTLVAISFGMHLNFEETQLLLRIA | -0.98 |
| HMKEYRKEGHLYFVTEDRNNEIYLWDFTDKPKHEFKEIITSVELQKVAKEGAMLQYKNGKYELYS | -0.0848 |
| HMIRILIVDDSAFMRKLLSDVFEEDKNFVVVDTARNGQDAVEKVKRLKPDLVTMDVEMPVMDGLTAVEIIM | -1.12 |
| HMPATTMMVVVDRDLPYGHVLTDRDVRLETRRATSPGASVAFTSIDPVLGQSLTRPLGAGTPVGRADLR | -0.151 |

| Sequence | soluble fraction (log2) |
| --- | --- |
| HMLSPAQSLLLRTAARRPDGRVIPPDTLRGGARVKVLTSLLQRGWIEPVDGGHVLTDAGYAAIG | ≥ 0.43 |
| HMSVDDYLKFSGSGTYWNTQDRGKTYLVNGQQRPLRDKEYLPDVMHRHVIDFITKHRDRPFYIYYSM | -0.0438 |
| HMAIEMSTITKRVTSTGEIRYRALLQIRREDVNYTESRTFSKKSLAEAWLKKREVELEANPELLHQ | ≥ 0.43 |
| HMDFTISDADFHRLVQFIQQNYGVALSKKRQLISSRLSHSLRELGYKDFRTFLEHLFSTRDPADLELVLNK | -0.399 |
| HMKKDDLKQINGIGTTIEKKLNEIDIYNFYQISNLSKEDIETISEKIKTFPGKIERDNWVGQAQELL | -0.844 |
| HMVDPRLRSLTPQERRILEHIAEGLTNRQIAEDMFLAEKTVKNYVTSILDKLGMDSRTQAAVYAATHPT | -0.438 |
| HMDSSITLMRMYIPKGHNWENKLISDVSMPTNSLALMIKRNGTTIIPKGDTMILAKDTLILSVPSYEPS | -1.86 |
| HMAFDGIVLKNITNALKELINGKINKIQQSSKDNLTLSIYNQKSYNLYIDISANNYRVNLTTHSE | 0.22 |
| HMRAVPSIAFVTQKLIEQGVTMEQLVRSLLLDHEEYENDDSLERTADELFGKARMIISNYTPE | -1.04 |
| HMGAYPENSLLKERGQSAVYLIQENRKRLFFNAEAFLINGYNWKDIQVVDDLSKILTGKVIYAK | -1.48 |
| HMGGLIDQSIQEIIDKYSVPGKKIQKAQRLKIVAEMHTKGIFKMRGGVQQAAQALGVTRYTVYNDLEVMN | -0.259 |
| HMIDQNEDLLSGYIDEVLSQNPDKVNEYLKGKSGLIGFFMGQIKQKSATALDAALLKSQLETALEKLRIK | -0.00948 |
| HMATLQLPVPKITLYPGELIRSDHLTDQRFNARALYHSAVYKSREDIVGKVARRTLLPGQPIPVNALR | 0.194 |
| HMRLHSSGEDYLKAIFILEAQHSSVRSVEVAEYMNVSKASVSHAVALLKKNGFLKMNQDYDLTER | -0.906 |
| HMRVGADLTQRERELLALMAQGMSNQEIAKRLEIAVPTVKFHITNILDKLQVGNRTEAVIAALEHKLVP | -0.767 |
| HMLPITPGQKYKFVVKSAEEAAAIIRDKLGEMAQVISVRQVEGEGLARFLKSPKLEIIAQVPVA | -0.349 |
| HMQEEMIRGDIKLNTVMQTVHLAVGTETERNWQPVETTAKEFELLKLLMENPGVTLKKEYLFHMLI | -0.654 |
| HMIHMNMGQKINQLRLQKGFTLEELGNLVGVGKSTVRKWENGMIANMKRDKILLVAEALDTSPAYLMGWD | -0.462 |
| HMDVLSPEEWIEFRTAYNNNRYISQYGSKGATIEDDYATRLAMIGGKESYYFLNDPRWTEPGYGNLK | -1.45 |
